According to the supplement of paper PMC10567573:

B1: MMP1 (parent)
chain: YTPDLPRADVDHAIEKAFQLWSNV

Variants of: B1
Assay: protein stability index of a GFP-peptide fusion (GPS, HEK-293T) (PSI 1-6); higher = more stable
Settings: c terminus: a fixed tail appended
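Also: lentivirally expressed fusions sorted by FACS into six bins by GFP to DsRed ratio, PSI derived from sequencing read proportions per bin multiplied by bin number.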

Protein stability index: each site, then its substitutions
A13: H 2.27 | K 2.1 | R 2.08 | I 2.27 | Y 1.95 | E 2.19 | S 1.89 | M 2.61 | W 2.06 | V 2.79 | D 1.71 | T 3 | P 1.58 | F 1.79 | N 2.11 | G 3.15 | Q 2.03 | L 1.63 | C 1.93
F18: N 1.94 | S 1.67 | D 2.18 | V 2.04 | M 2.04 | E 2.29 | T 2.13 | L 1.46 | G 2.23 | I 2.41 | Y 2.11 | K 2.22 | Q 1.73 | R 1.66 | W 1.48 | P 1.99 | A 1.83 | H 3.17 | C 1.69
H12: S 1.58 | V 1.95 | R 1.64 | I 2 | W 2.21 | Q 1.69 | G 2.03 | M 1.63 | F 1.7 | C 1.62 | Y 2 | L 2.19 | E 2.04 | T 1.82 | A 2.46 | N 1.92 | K 1.79 | P 2.11 | D 2.09
L5: P 1.81 | H 2.2 | R 2.49 | W 2.17 | V 2.89 | N 1.92 | K 1.91 | I 2.1 | Y 1.44 | Q 2.07 | T 2.02 | M 2.12 | S 2.05
Q19: S 1.7 | I 2.33 | W 1.96 | M 1.68 | A 1.54 | Y 1.87 | K 1.86 | V 2.66 | T 3.63 | G 1.75 | N 2.82 | L 1.05 | E 1.98 | H 1.97 | F 2.43 | C 3.82 | D 2.5 | P 1.52 | R 2.15
L20: S 2.29 | E 3.55 | A 2.17 | Q 1.59 | M 1.77 | I 2.16 | N 2.19 | F 2.67 | P 1.88 | G 1.9 | W 1.1 | D 2.96 | H 2.38 | V 2.76 | T 2.21 | C 1.84 | K 2.9 | Y 1.78 | R 1.99
V10: F 1.79 | M 2.56 | I 1.76 | E 1.81 | Y 2.71 | D 2.16 | N 1.48 | T 1.91 | S 1.88 | W 3.04 | P 1.49 | L 1.27 | R 2.55 | Q 1.81 | H 1.58 | K 2.44 | G 1.96 | C 2.1 | A 2.06
D11: W 1.73 | E 1.4 | I 1.94 | S 1.96 | M 2.12 | L 1.96 | N 1.63 | V 1.59 | T 2.62 | F 2.12 | H 2.07 | K 2.21 | R 2.69 | Y 1.7 | A 2.08 | C 2.17 | G 3.41 | P 3.09 | Q 1.83
A17: V 2.38 | K 1.44 | Q 1.82 | T 2.54 | W 1.25 | P 1.43 | C 1.83 | R 1.63 | N 1.53 | Y 1.68 | E 1.84 | G 1.93 | M 2 | F 1.97 | D 1.97 | H 2.68 | I 2.15 | S 2.11 | L 1.79
I14: W 1.46 | R 2.31 | L 1.39 | M 1.7 | G 2.25 | Q 2.3 | C 2.1 | Y 2.17 | P 2.14 | H 1.62 | S 1.51 | F 2.14 | A 1.68 | K 2.14 | V 2.08 | D 1.81 | E 1.36 | T 1.39 | N 1.88
R7: H 1.89 | A 2.3 | E 1.94 | M 2.25 | N 1.64 | D 1.79 | Q 1.92 | Y 1.08 | C 2.01 | P 1.81 | W 1.79 | S 1.75 | G 1.91 | V 2.12 | F 2.09 | L 1.42 | I 1.5 | K 2.12 | T 1.88
D9: T 1.82 | Q 2.5 | M 2.31 | E 1.75 | F 1.57 | N 1.59 | S 2.55 | G 2.49 | A 1.38 | R 1.16 | P 1.54 | C 1.75 | W 1.51 | L 1.3 | I 1.78 | K 2.44 | Y 2.35 | V 2.62 | H 2.51
P6: R 1.78 | N 1.8 | S 2.55 | K 2.12 | A 1.56 | D 2.01 | M 2.2 | Y 1.47 | F 1.82 | V 2.12 | T 1.78 | H 1.55 | I 2.09 | Q 2.03 | L 1.32 | W 2.06 | C 2.05 | E 1.83 | G 2.17
W21: I 2.67 | Q 2.88 | G 3.01 | T 3.42 | N 3.36 | R 3.25 | K 3.4 | Y 2.5 | P 3.4 | H 3.42 | A 3.05 | C 3.03 | E 3.74 | S 3.25 | V 3.18 | M 3.03 | L 3.56 | F 2.13 | D 3.88
A8: E 2.67 | P 1.51 | N 1.41 | H 1.75 | D 1.53 | W 1.87 | Q 1.57 | S 1.68 | M 1.74 | F 2.94 | C 2.07 | K 2.58 | L 2.03 | I 1.88 | V 1.64 | Y 1.93 | G 2.83 | R 1.67 | T 1.79
S22: L 2.19 | H 1.43 | E 2.75 | C 2.02 | A 1.78 | R 1.72 | I 2.04 | Q 1.98 | G 1.81 | M 1.69 | T 1.59 | D 2.59 | P 1.85 | V 1.44 | F 1.82 | N 1.85 | K 2.03
K16: F 1.52 | Y 3.76 | D 1.71 | S 2 | W 3.17 | L 1.52 | G 1.19 | Q 1.76 | H 2.06 | P 1.83 | T 2.03 | A 2.07 | I 2.71 | C 2.02 | E 1.76 | N 1.52 | M 1.54 | R 1.8 | V 2.28
E15: N 1.97 | F 2.56 | K 1.32 | T 2.46 | D 1.58 | S 2.19 | C 2.24 | G 2.54 | L 2.65 | A 1.46 | Q 1.46 | P 1.93 | H 2.09 | M 2.46 | V 1.39 | Y 2.07 | I 2.53 | R 2.73 | W 1.83
